Laboratory results: US10106582B2, “Complex-formation-modulating agents and uses therefor” (Factor Therapeutics Limited, priority 2012, dated 2018)

Experiments:
IGFBP-5 = target: T1, IGFBP-5 (Homo sapiens, UniProt P24593); assay: VN-peptide array: binding of IGFBP-5 to immobilized overlapping 16-mer VN peptides; conditions: spot stronger than negative controls = positive hit
T1 construct: purchased GroPep
Excerpt: (§1) The inventors designed small-molecule VN-peptides that could potentially disrupt the formation of the IGF-I:IGFBP:VN trimeric or the IGF-II:VN dimeric complexes by binding to the IGFBPs and/or IGF-II and preventing their association with VN within the complex. To design peptides, the binding sites of IGFBP-3/-5 and IGF-II on VN were first determined using VN-peptide arrays. The entire VN protein sequence, excluding the signal peptide (residues 1-19), was divided into overlapping 16-mer peptides with 3AA frameshift/offset (for peptide sequences refer to Table 6) and immobilized onto cellulose membranes (peptide spotting was outsourced to PepMetric Technologies Inc). For a schematic of the arrangement of VN peptides and controls refer to FIG. 2. The resultant peptide arrays were incubated either with IGFBP-3, IGFBP-5 or IGF-II ligands, probed with the respective antibodies, the membranes developed using ECL, and imaged using the ChemiDoc™ XRS system (BioRad). The spots on the membrane were analysed using TotalLab array quantification software (TotalLab Ltd, Newcastle, England) identifying positive peptide spots by comparing each spot to the combined intensities of the negative controls.
The entire VN protein sequence, excluding the signal peptide (residues 1-19), was divided into overlapping 16-mer peptides with 3 amino acid (AA) frameshift/offset. […]

IGF-II = target: T2, IGF-II (Homo sapiens, UniProt P01344); assay: VN-peptide array: binding of IGF-II to immobilized overlapping 16-mer VN peptides; conditions: spot stronger than negative controls = positive hit
T2 construct: purchased GroPep
T2 sequence (P01344 25-91 limits assumed): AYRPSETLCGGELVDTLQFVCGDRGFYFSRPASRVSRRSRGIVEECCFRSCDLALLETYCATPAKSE
Excerpt: as §1
(§2) The entire VN protein sequence, excluding the signal peptide (residues 1-19), was divided into overlapping 16-mer peptides with 3 amino acid (AA) frameshift/offset. This yielded 148 overlapping peptides covering the entire VN sequence (residues 20-478) (Table 6) with a resolution of 3 AA. Peptide synthesis and spotting onto a cellulose membrane were outsourced to PepMetric Technologies Inc. (Richmond, BC, Canada). For a diagrammatic illustration of the strategy used to divide an example amino acid sequence into peptides and to spot them onto the membrane, please refer to http://www.pepmetric.com/html/Pep-Overlap.html. The VN-overlapping peptides were generated using FMOC (9-fluorenylmethoxycarbonyl) Solid-Phase SPOT synthesis onto PEG-grafted amine-functionalized cellulose membrane (Whatman® 540 filter paper). The peptides were spotted onto the cellulose membrane in a 10×16 grid with each peptide being 10˜50 nM in concentration with >70% purity. Finally, these membranes were acetylated in order to cap the free ends of the spotted peptides preventing them from degradation during shipping and storage.
(§3) Along with the VN-peptides these membranes were also spotted with a positive control (i.e., universal binding peptides tested by the manufacturer to be positive for antibodies from goat, mouse, rat and chicken) and a negative control (ie. non-binding peptides as well as BSA) controls. For a schematic of the arrangement of VN-peptides and controls refer to FIG. 2 and for the sequence of each peptide corresponding to the grid number refer to Table 6. Four such replicate membranes were prepared and stored at room temperature in a clip sealed plastic bag. Long-term storage was at −20° C.
(§4) Methanol or ethanol was used to enhance the rehydration of peptide spots that might be hydrophobic. The peptides spotted onto the membranes were activated by incubating in 3 mL of 70% ethanol for five mins. The membranes were subsequently washed three times, 10 minutes each, in 10 mL TBS (Tris Buffered Saline; 8 g NaCl, 0.2 g KCl and 6.1 g Tris Base into 1000 mL of milliQ water, pH 7) with gentle rocking. Membrane blocking was performed by incubating in 10 mL casein-based membrane blocking buffer (MBS; Sigma-Aldrich) overnight at 4° C. The following day, the membranes were washed twice, 10 minutes each, in 10 mL TBS-T (TBS+0.05% Tween-20; pH 7).
(§5) Ligands used to test binding to VN-peptides were IGFBP-3, IGFBP-5 and IGF-II. For ligand binding, four separate solutions of 1 μg/mL ligand in 10 mL MBS buffer were prepared and each membrane was incubated in one of the four ligand solutions overnight at 4° C., with gentle rocking. […] The following day, the membranes were washed three times, 10 minutes each, in 10 mL TBS-T. […]

IGFBP-3 = target: T3, IGFBP-3 (Homo sapiens, UniProt P17936); assay: VN-peptide array: binding of IGFBP-3 to immobilized overlapping 16-mer VN peptides; conditions: spot stronger than negative controls = positive hit
T3 construct: purchased GroPep
T3 sequence (P17936 28-291): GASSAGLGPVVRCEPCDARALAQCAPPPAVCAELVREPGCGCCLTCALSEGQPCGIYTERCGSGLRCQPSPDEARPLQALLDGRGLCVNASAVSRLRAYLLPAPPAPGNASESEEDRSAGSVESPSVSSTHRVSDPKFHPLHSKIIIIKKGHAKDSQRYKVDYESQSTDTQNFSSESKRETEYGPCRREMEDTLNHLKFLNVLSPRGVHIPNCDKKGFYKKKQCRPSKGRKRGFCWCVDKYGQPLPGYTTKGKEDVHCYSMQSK
Excerpt: as §1, §2, §3, §4, §5

MCF-7 cells = assay: Transwell migration assay, IGF-I+IGFBP-3+VN (TRI)-stimulated MCF-7 cell migration; type: cell-based, human
Description: FIG. 6 is a graphical representation showing MCF-7 cell migration in response to VN peptides. MCF-7 cells were seeded onto the upper-surface of a Transwell inserts coated on the under-surface with treatments containing IGF-I+IGFBP-3+VN (TRI; 10 nM) with or without increasing concentrations of either peptide P7, P8 or Pneg. Migration was assessed after 15 hours. Data is represented as percentage of change in migration compared to the TRI only control. Error bars indicate standard error mean.
This assay has been repeated three times with treatments tested in triplicate wells in each replicate experiment.
The breast cancer epithelial cell line MCF-7 was used for this assay. Migration was assessed by measuring relative number of cells migrating through 8-μm pore Transwell membranes in response to substrate-bond proteins complexes. IGFBP-3 was allowed to bind either peptide P7, P8 or a combination of P7 and P8 for 2 hours. IGF-I was later added to this protein mix which was then added to Transwells pre-coated with VN. Post-overnight incubation, unbound proteins were removed, Transwells washed twice and cells seeded onto the upper chamber. Cells migrated to the under-surface over 15 hours were indirectly quantified using crystal violet staining.

[1] = increasing peptide concentrations added to TRI (IGF-I+IGFBP-3+VN; 10 nM), 15 hours

T1 sequence (P24593 21-272): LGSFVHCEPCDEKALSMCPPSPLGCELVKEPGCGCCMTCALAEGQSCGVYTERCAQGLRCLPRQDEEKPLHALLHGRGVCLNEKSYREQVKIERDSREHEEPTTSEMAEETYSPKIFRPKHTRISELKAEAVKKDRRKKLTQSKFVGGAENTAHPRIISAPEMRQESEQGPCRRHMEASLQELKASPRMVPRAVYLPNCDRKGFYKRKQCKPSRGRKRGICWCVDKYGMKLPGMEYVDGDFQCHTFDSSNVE

Row | Binding of IGFBP-5 on VN-peptide array (positive spot or not) (IGFBP-5) | Binding of IGF-II on VN-peptide array (positive spot or not) (IGF-II) | Binding of IGFBP-3 on VN-peptide array (positive spot or not) (IGFBP-3) | Sequence | Inhibition of TRI-stimulated MCF-7 cell migration (MCF-7 cells; 30 nM peptide dose, TRI 10 nM, 15 hours (most significant inhibition)) | Inhibition of TRI-stimulated MCF-7 cell migration (MCF-7 cells; [1])
1 | does not bind | binds | does not bind | LFSSEESNLGANNYDDYRMDWL (listed as Homo sapiens) [Peptide P7, human VN motif 7 mimic] | returned to the ‘VN only’ treatment levels | dose dependent inhibition
2 | did not show any binding | did not show any binding | did not show any binding | KTYLFKGSQYWRFEDG [Neg, reference compound] | – | no inhibition of cell migration was observed
